Data from article PMC3150272, “Crystal Structure of Reovirus Attachment Protein σ1 in Complex with Sialylated Oligosaccharides” (PLoS Pathogens, 2011).

Target: the molecule itself
Experiment: crystal structure; crystals grown in 15% PEG200, 0.1 M MES pH 6.5; space group P2(1)2(1)2, one trimer in the asymmetric unit; soaked with 10 mM α-2,3-sialyllactose, α-2,6-sialyllactose or α-2,8-disialyllactose

B1: reovirus type 3 Dearing (T3D) attachment protein σ1, body and head domains (residues 170-455), Ile249 (domain or fragment)
chain: VTSAGAPLSIRNNRMTMGLNDGLTLSGNNLAIRLPGNTGLNIQNGGLQFRFNTDQFQIVNNNLTLKTTVFDSINSRIGAIEQSYVASAVTPLRLNSSTKVLDMLIDSSTLEINSSGQLTVRSTSPNLRYPIADVSGGIGMSPNYRFRQSMWIGIVSYSGSGLNWRVQVNSDIFIVDDYIHICLPAFDGFSIADGGDLSLNFVTGLLPPLLTGDTEPAFHNDVVTYGAQTVAIGLSSGGAPQYMSKNLWVEQWQDGVLRLRVEGGGSITHSNSKWPAMTVSYPRSFT
notes: The His6-tagged GCN4 trimerization domain was removed by trypsin before the final purification and crystallization; also called T3D σ1; reovirus attachment protein σ1; source: E. coli Rosetta 2 DE3, purified (Ni-IMAC, on-column trypsin digestion, Superdex-200 SEC); not shown: His6, N-terminal, cleaved; GCN4 trimerization domain (modified GCN4 leucine zipper), N-terminal, cleaved
  stoichiometry N: 3
